In test [1] the target is T1, human amylin receptor (calcitonin receptor co-expressed with receptor activity modifying protein, RAMP3) (human, UniProt P30988 25-474; O60896 24-148).
T1 sequence (looked up) 1: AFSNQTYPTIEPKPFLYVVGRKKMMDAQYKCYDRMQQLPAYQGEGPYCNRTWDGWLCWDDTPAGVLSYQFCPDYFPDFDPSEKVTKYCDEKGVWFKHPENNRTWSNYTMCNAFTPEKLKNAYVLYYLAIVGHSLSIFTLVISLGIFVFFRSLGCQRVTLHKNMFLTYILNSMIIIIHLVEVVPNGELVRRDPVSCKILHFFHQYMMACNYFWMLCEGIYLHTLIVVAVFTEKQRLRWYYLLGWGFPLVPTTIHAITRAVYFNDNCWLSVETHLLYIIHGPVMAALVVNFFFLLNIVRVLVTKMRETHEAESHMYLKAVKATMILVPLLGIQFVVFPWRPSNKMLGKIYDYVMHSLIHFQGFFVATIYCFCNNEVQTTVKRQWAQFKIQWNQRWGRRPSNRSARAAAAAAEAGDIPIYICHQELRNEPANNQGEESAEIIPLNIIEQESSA
T1 sequence (looked up) 2: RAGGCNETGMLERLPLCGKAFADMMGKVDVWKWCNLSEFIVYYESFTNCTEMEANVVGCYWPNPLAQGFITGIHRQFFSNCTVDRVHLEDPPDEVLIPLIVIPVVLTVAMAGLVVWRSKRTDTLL
Briefly: cell-based or functional assay.

Test [2] concerns the target T2, human calcitonin receptor (human, UniProt P30988 25-474).
T2 sequence (looked up): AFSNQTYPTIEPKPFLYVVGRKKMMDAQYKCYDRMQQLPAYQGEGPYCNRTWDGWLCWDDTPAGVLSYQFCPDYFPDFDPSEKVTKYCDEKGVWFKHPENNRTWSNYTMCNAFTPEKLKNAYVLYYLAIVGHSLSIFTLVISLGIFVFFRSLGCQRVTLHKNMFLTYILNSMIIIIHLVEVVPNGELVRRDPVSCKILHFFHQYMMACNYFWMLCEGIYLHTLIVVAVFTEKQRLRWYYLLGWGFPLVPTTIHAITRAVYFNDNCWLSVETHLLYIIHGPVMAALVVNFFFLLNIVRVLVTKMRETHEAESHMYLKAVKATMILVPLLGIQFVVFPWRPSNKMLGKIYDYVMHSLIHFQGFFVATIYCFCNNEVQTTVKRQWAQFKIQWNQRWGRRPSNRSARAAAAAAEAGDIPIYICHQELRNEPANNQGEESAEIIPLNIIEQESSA
As to the kind of experiment: cell-based or functional assay.

Numbered stars: 1 amine (or outer) side, 2 acyl side, 3 side chain; on linkers, the order of the positions; unused ones are H or OH. Bridge positions count the residues as written; N and C are the ends. Square brackets hold non-standard residues; d marks the D form. Side chains are listed from the residue outwards. Ends that are not written are not given here. * marks the point of attachment. C18 diacid = O=C(O)CCCCCCCCCCCCCCCCC(=O)*; γGlu = O=C(O)[C@H](CCC(=O)[*:2])N[*:1]; αMeF = C[C@](N)(Cc1ccccc1)C(=O)O; αMeS = C[C@](N)(CO)C(=O)O; Dab = NCC[C@H](N)C(=O)O; Aib = CC(C)(N)C(=O)O

Regarding {C18 diacid}-[γGlu][γGlu]GGGKCNTATCATQRLANFLVHSSNNFGPILPPTNVGSNTY-NH2 (disulfide 7-12) [Peptide 4 (SEQ ID NO: 4)], in test [1], the “EC50 (cAMP production)” value turned out to be 0.248 nM and the “Ratio (EC50 hCTR / EC50 hAMYR3)” value stood at 30. Further, the “EC50 (cAMP production)” value in test [2] worked out at 7.53 nM.

B1: Peptide 25 (SEQ ID NO: 25) (peptide)
peptide: K([γGlu-C18 diacid])CNTATCATQRLANFLVHSSNN[αMeF]GPILPPTRVGSNTY-NH2
modifications: disulfide 2-7; N-terminus assumed
SMILES: CC[C@H](C)[C@H](NC(=O)[C@@H]1CCCN1C(=O)CNC(=O)[C@](C)(Cc1ccccc1)NC(=O)[C@H](CC(N)=O)NC(=O)[C@H](CC(N)=O)NC(=O)[C@H](CO)NC(=O)[C@H](CO)NC(=O)[C@H](Cc1c[nH]cn1)NC(=O)[C@@H](NC(=O)[C@H](CC(C)C)NC(=O)[C@H](Cc1ccccc1)NC(=O)[C@H](CC(N)=O)NC(=O)[C@H](C)NC(=O)[C@H](CC(C)C)NC(=O)[C@H](CCCNC(=N)N)NC(=O)[C@H](CCC(N)=O)NC(=O)[C@@H](NC(=O)[C@H](C)NC(=O)[C@@H]1CSSC[C@H](NC(=O)[C@@H](N)CCCCNC(=O)CC[C@H](NC(=O)CCCCCCCCCCCCCCCCC(=O)O)C(=O)O)C(=O)N[C@@H](CC(N)=O)C(=O)N[C@@H]([C@@H](C)O)C(=O)N[C@@H](C)C(=O)N[C@@H]([C@@H](C)O)C(=O)N1)[C@@H](C)O)C(C)C)C(=O)N[C@@H](CC(C)C)C(=O)N1CCC[C@H]1C(=O)N1CCC[C@H]1C(=O)N[C@H](C(=O)N[C@@H](CCCNC(=N)N)C(=O)N[C@H](C(=O)NCC(=O)N[C@@H](CO)C(=O)N[C@@H](CC(N)=O)C(=O)N[C@H](C(=O)N[C@@H](Cc1ccc(O)cc1)C(N)=O)[C@@H](C)O)C(C)C)[C@@H](C)O
As for B1, in test [1], the “EC50 (cAMP production)” value came to 0.105 nM and the “Ratio (EC50 hCTR / EC50 hAMYR3)” value is 12. The “EC50 (cAMP production)” value in test [2] is 1.25 nM.

K([γGlu-γGlu-C18 diacid])CNTATCATQRLANFLVHS[αMeS]NNFGPILPPTNVGSNTY-NH2 (disulfide 2-7) [Peptide 22 (SEQ ID NO: 22)]: the “EC50 (cAMP production)” value was 0.162 nM in test [1] and 6.54 nM in test [2]. Moreover, the “Ratio (EC50 hCTR / EC50 hAMYR3)” value in test [1] was found to be 40.

B2: Peptide 23 (SEQ ID NO: 23) (peptide)
peptide: K([γGlu-γGlu-C18 diacid])CNTATCATQRLANFLVHSSNN[αMeF]GPILPPTEVGSNTY-NH2
modifications: disulfide 2-7; N-terminus assumed
SMILES: CC[C@H](C)[C@H](NC(=O)[C@@H]1CCCN1C(=O)CNC(=O)[C@](C)(Cc1ccccc1)NC(=O)[C@H](CC(N)=O)NC(=O)[C@H](CC(N)=O)NC(=O)[C@H](CO)NC(=O)[C@H](CO)NC(=O)[C@H](Cc1c[nH]cn1)NC(=O)[C@@H](NC(=O)[C@H](CC(C)C)NC(=O)[C@H](Cc1ccccc1)NC(=O)[C@H](CC(N)=O)NC(=O)[C@H](C)NC(=O)[C@H](CC(C)C)NC(=O)[C@H](CCCNC(=N)N)NC(=O)[C@H](CCC(N)=O)NC(=O)[C@@H](NC(=O)[C@H](C)NC(=O)[C@@H]1CSSC[C@H](NC(=O)[C@@H](N)CCCCNC(=O)CC[C@H](NC(=O)CC[C@H](NC(=O)CCCCCCCCCCCCCCCCC(=O)O)C(=O)O)C(=O)O)C(=O)N[C@@H](CC(N)=O)C(=O)N[C@@H]([C@@H](C)O)C(=O)N[C@@H](C)C(=O)N[C@@H]([C@@H](C)O)C(=O)N1)[C@@H](C)O)C(C)C)C(=O)N[C@@H](CC(C)C)C(=O)N1CCC[C@H]1C(=O)N1CCC[C@H]1C(=O)N[C@H](C(=O)N[C@@H](CCC(=O)O)C(=O)N[C@H](C(=O)NCC(=O)N[C@@H](CO)C(=O)N[C@@H](CC(N)=O)C(=O)N[C@H](C(=O)N[C@@H](Cc1ccc(O)cc1)C(N)=O)[C@@H](C)O)C(C)C)[C@@H](C)O
Take B2: in test [1], the “EC50 (cAMP production)” value was 0.238 nM and the “Ratio (EC50 hCTR / EC50 hAMYR3)” value was found to be 2. Also, the “EC50 (cAMP production)” value in test [2] was determined as 0.589 nM.

B3: Peptide 27 (SEQ ID NO: 27) (peptide)
peptide: K([γGlu-γGlu-C18 diacid])CNIATCATQRLANFLVHSS[Dab]NFGPILPPTNVGSRTY-NH2
modifications: disulfide 2-7; N-terminus assumed
SMILES: CC[C@H](C)[C@@H]1NC(=O)[C@H](CC(N)=O)NC(=O)[C@@H](NC(=O)[C@@H](N)CCCCNC(=O)CC[C@H](NC(=O)CC[C@H](NC(=O)CCCCCCCCCCCCCCCCC(=O)O)C(=O)O)C(=O)O)CSSC[C@@H](C(=O)N[C@@H](C)C(=O)N[C@H](C(=O)N[C@@H](CCC(N)=O)C(=O)N[C@@H](CCCNC(=N)N)C(=O)N[C@@H](CC(C)C)C(=O)N[C@@H](C)C(=O)N[C@@H](CC(N)=O)C(=O)N[C@@H](Cc2ccccc2)C(=O)N[C@@H](CC(C)C)C(=O)N[C@H](C(=O)N[C@@H](Cc2c[nH]cn2)C(=O)N[C@@H](CO)C(=O)N[C@@H](CO)C(=O)N[C@@H](CCN)C(=O)N[C@@H](CC(N)=O)C(=O)N[C@@H](Cc2ccccc2)C(=O)NCC(=O)N2CCC[C@H]2C(=O)N[C@H](C(=O)N[C@@H](CC(C)C)C(=O)N2CCC[C@H]2C(=O)N2CCC[C@H]2C(=O)N[C@H](C(=O)N[C@@H](CC(N)=O)C(=O)N[C@H](C(=O)NCC(=O)N[C@@H](CO)C(=O)N[C@@H](CCCNC(=N)N)C(=O)N[C@H](C(=O)N[C@@H](Cc2ccc(O)cc2)C(N)=O)[C@@H](C)O)C(C)C)[C@@H](C)O)[C@@H](C)CC)C(C)C)[C@@H](C)O)NC(=O)[C@H]([C@@H](C)O)NC(=O)[C@H](C)NC1=O
Take B3: in test [1], the “EC50 (cAMP production)” value came to 0.134 nM and the “Ratio (EC50 hCTR / EC50 hAMYR3)” value was 5. Besides, in test [2], the “EC50 (cAMP production)” value was determined as 0.731 nM.

B4: Peptide 21 (SEQ ID NO: 21) (peptide)
peptide: K([γGlu-γGlu-C18 diacid])CNTATCATQRLANFLVHSSNN[αMeF]GPILPPTNVGSRTY-NH2
modifications: disulfide 2-7; N-terminus assumed
SMILES: CC[C@H](C)[C@H](NC(=O)[C@@H]1CCCN1C(=O)CNC(=O)[C@](C)(Cc1ccccc1)NC(=O)[C@H](CC(N)=O)NC(=O)[C@H](CC(N)=O)NC(=O)[C@H](CO)NC(=O)[C@H](CO)NC(=O)[C@H](Cc1c[nH]cn1)NC(=O)[C@@H](NC(=O)[C@H](CC(C)C)NC(=O)[C@H](Cc1ccccc1)NC(=O)[C@H](CC(N)=O)NC(=O)[C@H](C)NC(=O)[C@H](CC(C)C)NC(=O)[C@H](CCCNC(=N)N)NC(=O)[C@H](CCC(N)=O)NC(=O)[C@@H](NC(=O)[C@H](C)NC(=O)[C@@H]1CSSC[C@H](NC(=O)[C@@H](N)CCCCNC(=O)CC[C@H](NC(=O)CC[C@H](NC(=O)CCCCCCCCCCCCCCCCC(=O)O)C(=O)O)C(=O)O)C(=O)N[C@@H](CC(N)=O)C(=O)N[C@@H]([C@@H](C)O)C(=O)N[C@@H](C)C(=O)N[C@@H]([C@@H](C)O)C(=O)N1)[C@@H](C)O)C(C)C)C(=O)N[C@@H](CC(C)C)C(=O)N1CCC[C@H]1C(=O)N1CCC[C@H]1C(=O)N[C@H](C(=O)N[C@@H](CC(N)=O)C(=O)N[C@H](C(=O)NCC(=O)N[C@@H](CO)C(=O)N[C@@H](CCCNC(=N)N)C(=O)N[C@H](C(=O)N[C@@H](Cc1ccc(O)cc1)C(N)=O)[C@@H](C)O)C(C)C)[C@@H](C)O
In the case of B4, in test [1], the “EC50 (cAMP production)” value was 0.136 nM and the “Ratio (EC50 hCTR / EC50 hAMYR3)” value was found to be 25. In test [2], the “EC50 (cAMP production)” value is 3.41 nM.

B5: Peptide 26 (SEQ ID NO: 26) (peptide)
peptide: K([γGlu-γGlu-C18 diacid])CNTATCATQRLANFL[Aib]HSSNN[αMeF]GPILPPTNVGSNTY-NH2
modifications: disulfide 2-7; N-terminus assumed
SMILES: CC[C@H](C)[C@H](NC(=O)[C@@H]1CCCN1C(=O)CNC(=O)[C@](C)(Cc1ccccc1)NC(=O)[C@H](CC(N)=O)NC(=O)[C@H](CC(N)=O)NC(=O)[C@H](CO)NC(=O)[C@H](CO)NC(=O)[C@H](Cc1c[nH]cn1)NC(=O)C(C)(C)NC(=O)[C@H](CC(C)C)NC(=O)[C@H](Cc1ccccc1)NC(=O)[C@H](CC(N)=O)NC(=O)[C@H](C)NC(=O)[C@H](CC(C)C)NC(=O)[C@H](CCCNC(=N)N)NC(=O)[C@H](CCC(N)=O)NC(=O)[C@@H](NC(=O)[C@H](C)NC(=O)[C@@H]1CSSC[C@H](NC(=O)[C@@H](N)CCCCNC(=O)CC[C@H](NC(=O)CC[C@H](NC(=O)CCCCCCCCCCCCCCCCC(=O)O)C(=O)O)C(=O)O)C(=O)N[C@@H](CC(N)=O)C(=O)N[C@@H]([C@@H](C)O)C(=O)N[C@@H](C)C(=O)N[C@@H]([C@@H](C)O)C(=O)N1)[C@@H](C)O)C(=O)N[C@@H](CC(C)C)C(=O)N1CCC[C@H]1C(=O)N1CCC[C@H]1C(=O)N[C@H](C(=O)N[C@@H](CC(N)=O)C(=O)N[C@H](C(=O)NCC(=O)N[C@@H](CO)C(=O)N[C@@H](CC(N)=O)C(=O)N[C@H](C(=O)N[C@@H](Cc1ccc(O)cc1)C(N)=O)[C@@H](C)O)C(C)C)[C@@H](C)O
For B5, in test [1], the “EC50 (cAMP production)” value came to 0.409 nM and the “Ratio (EC50 hCTR / EC50 hAMYR3)” value was determined as 7. For the same molecule, in test [2], the “EC50 (cAMP production)” value is 2.8 nM.
